According to patent EP4772538A1:

Biological target: CD3D-CD3E-mFc (human; mouse)
Assay: SPR, Biacore T200, method of Section 3.1; affinity for CD3D-CD3E-mFc

Q: Which results are given for “TCR/CD3 bispecific molecule IMC-C103C (control bifunctional molecule)”?
A: Kd: 1.08 nM; koff: 0.00028 s⁻¹; kon: 258000 M⁻¹ s⁻¹
